pKi: −log10 of the molar value.
What was measured:
KcsA-Shaker channels [1] = test: TEVC block of KcsA-Shaker channels expressed in Xenopus oocytes; format: cell-based
KcsA-Shaker–Y82V = test: TEVC equilibrium inhibition of pore mutant KcsA-Shaker-Y82V in oocytes; format: cell-based; settings: KcsA-Shaker–Y82V vs KcsA-Shaker, 0 mV
KcsA-Shaker channels [2] = settings: TEA block of KcsA-Shaker; cited from earlier work
[3] = target: human Kv1.3 channel (human) (UniProt P22001); test: […]
[4] = target: human Kv1.3 channel (human) (UniProt P22001); test: two-electrode voltage clamp
[5] = target: KcsA-Shaker channel (KcsA pore carried in the Shaker channel) (Drosophila | not stated); test: two-electrode voltage clamp
[6] = target: KcsA-Shaker channel (KcsA pore carried in the Shaker channel) (Drosophila | not stated); test: […]
[7] = target: KcsA-Shaker–Y82V (Drosophila | not stated); test: […]
[8] = target: KcsA-Shaker channel (KcsA pore carried in the Shaker channel) (Drosophila | not stated); test: two-electrode voltage clamp; remark: listed apart in the source

Sequence of human Kv1.3 channel (human) (P22001 whole entry): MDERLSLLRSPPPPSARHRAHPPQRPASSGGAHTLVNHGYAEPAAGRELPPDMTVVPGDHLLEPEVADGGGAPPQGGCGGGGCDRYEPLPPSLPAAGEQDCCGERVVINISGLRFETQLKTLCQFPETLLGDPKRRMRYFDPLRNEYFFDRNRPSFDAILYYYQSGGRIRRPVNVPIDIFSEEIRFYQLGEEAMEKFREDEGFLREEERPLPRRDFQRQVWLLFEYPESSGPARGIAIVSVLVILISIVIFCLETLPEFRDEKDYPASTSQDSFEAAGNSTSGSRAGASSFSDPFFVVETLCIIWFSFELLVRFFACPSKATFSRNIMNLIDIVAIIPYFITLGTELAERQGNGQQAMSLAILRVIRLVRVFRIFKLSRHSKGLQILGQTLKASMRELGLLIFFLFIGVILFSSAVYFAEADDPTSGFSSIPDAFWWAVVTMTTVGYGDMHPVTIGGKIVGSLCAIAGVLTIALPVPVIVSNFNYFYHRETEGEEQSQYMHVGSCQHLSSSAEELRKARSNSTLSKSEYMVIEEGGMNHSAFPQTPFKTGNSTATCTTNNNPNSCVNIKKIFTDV

CC[N+](CC)(CC)CC [TEA, tetraethylammonium]
block of KcsA-Shaker (KcsA-Shaker channels [1]; 100 mM TEA): complete | τoff (dissociation / unblock) (KcsA-Shaker channels [1]; washout of 100 mM TEA): ~ 1.3 s | decrease in equilibrium affinity by mutation of pore residue Tyr^82 to Val (KcsA-Shaker–Y82V): ~ 200 fold | pKi (KcsA-Shaker channels [2]): ~3.10

T-HmK-Lys22Asn
koff [3]: 0.93 s⁻¹

T-ShK–Arg^24Gln (peptide)
pKi [4]: 10.12 | percent of current blocked (0.1 ng of cRNA) [4]: 93%

T-ShK (membrane-tethered ShK) (peptide)
pKi [4]: 10.01

ShK-Lys22Asn peptide
pKi [4]: 8.92

T-HmK–Tyr^23Ala (peptide)
pKi [5]: 7.55 | koff [5]: 0.17 s⁻¹ | kon [5]: 6.1e+06 M⁻¹ s⁻¹ | percent of current blocked (0.5 ng of cRNA) [5]: < 38%

Peptide HmK-Lys^22Asn
pKi [6]: 6.65 | koff [6]: 0.1 s⁻¹ | kon [6]: 380000 M⁻¹ s⁻¹

T-ShK–Lys^22Asn (peptide)
pKi [4]: 9.38 | percent of current blocked (0.1 ng of cRNA) [4]: 70%

HmK peptide
pKi [6]: 9.03 | kon [6]: 1.3e+06 M⁻¹ s⁻¹ | τoff [6]: 714 s | τon (5 nM HmK) [6]: 126 s | fold decrease of equilibrium affinity against KcsA-Shaker [7]: 550 fold | pKi [3]: 8.51 | kon [5]: 1.2e+06 M⁻¹ s⁻¹ | τon (30 nM HmK, after TEA wash off) [5]: 27 s

T-HmK variant Asn^26 to alanine (peptide)
fold decrease of affinity against T-HmK [5]: 10 fold

T-HmK–Arg^24Gln (peptide)
pKi [5]: 9.04 | koff [5]: 0.0063 s⁻¹ | kon [5]: 6.9e+06 M⁻¹ s⁻¹ | fold change of apparent Ki against T-HmK [4]: 3 fold | percent of current blocked (0.5 ng of cRNA) [4]: 68%

T-HmK variant Pro^8 to alanine (peptide)
fold decrease of affinity against T-HmK [5]: 10 fold

T-HmK–Lys^22Asn (peptide)
pKi [5]: 7.46 | koff [5]: 0.11 s⁻¹ | kon [5]: 3.1e+06 M⁻¹ s⁻¹ | percent of current blocked (0.5 ng of cRNA) [5]: < 38% | fold change of apparent Ki against T-HmK [4]: 230 fold | percent of current blocked (0.5 ng of cRNA) [4]: 2%

ShK-K22N peptide
fold decrease of inhibition against ShK peptide [3]: 24 fold

T-HmK (membrane-tethered HmK, 46-residue linker) (peptide)
pKi [8]: 8.96 | pKi [5]: 8.96 | apparent first-order on rate (effective T-HmK 1 nM) [5]: 0.014 s⁻¹ | apparent first-order on rate (effective T-HmK 17 nM) [5]: 0.119 s⁻¹ | koff [5]: 0.0073 s⁻¹ | kon [5]: 6.6e+06 M⁻¹ s⁻¹ | percent of current inhibited (0.01 ng of T-HmK cRNA) [5]: 2% | percent of current inhibited (0.25 ng of T-HmK cRNA) [5]: 76% | percent of current inhibited (0.35 ng of T-HmK cRNA) [5]: 87% | percent of current inhibited (0.5 ng of T-HmK cRNA) [5]: > 94% | percent of current inhibited (1 ng of T-HmK cRNA) [5]: 98% | τon (0.25 ng of T-HmK cRNA) [5]: 33 s | pKi [4]: 8.52

Peptide HmK-Tyr^23Ala
pKi [6]: 6.79 | koff [6]: 0.15 s⁻¹ | kon [6]: 930000 M⁻¹ s⁻¹
